From patent publication US9512212 (ARIZONA BOARD OF REGENTS A BODY CORPORATE OF THE STATE OF …, dated 2016)

Experiments:
β-amyloid (Aβ) [1] = molecular target: T1, β-amyloid (Aβ) (UniProt P05067 672-711, limits assumed); experiment: not stated (clone from standard affinity maturation of H1)
T1 construct: Aβ is a fragment of it; also called beta amyloid; Ab40

β-amyloid (Aβ) [2] = molecular target: T1, β-amyloid (Aβ); experiment: not stated (standard affinity maturation)

T1 sequence (P05067 672-711 limits assumed): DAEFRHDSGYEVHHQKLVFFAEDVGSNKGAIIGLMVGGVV

- Kd (β-amyloid (Aβ) [1]): 247 nM
- fold increase in affinity over the parent H1 scFv (β-amyloid (Aβ) [2]): ~5 fold
B1: H1v2 anti-Ab40 scFv (scFv)
scFv: MAEVQLVESGGGVVRPGGSLRLSCAASGFTFDDYGMSWVRQAPGKGLEWVSGINWNGGSTGYADSVKGRFTISRDNAKNSLYLQMNSLRAEDTAVYYCARRRYALDYWGQGTLVTVSRGGGGSGGGGSGGGGSSELTQDPAVSVALGQTVRITCQGDSLRSYYASWYQQKPGQAPVLVIYGKNNRPSGIPDRFSGSSSGNTASLTITGAQAEDEADYYCNSRDSSGNHVVFGGGTKLTVLG
notes: also called H1v2 clone
